# Measured values taken from patent US20230288426A1, “REAGENT FOR MEASURING L-BIOTIN, METHOD FOR MEASURING SAMPLE CONTAINING L-BIOTIN, METHOD FOR DETERMINING NUMBER OF LABELS OF L-BIOTIN-LABELED SUBSTANCE, AND METHOD FOR PRODUCING SOLID PHASE ON WHICH OPTICALLY ISOMERIC BIOTIN-BINDING SITE IS IMMOBILIZED” (SYSMEX CORPORATION, priority 2022, published 2023).
# Where two headings read alike, the source gives them in different places.
# Target: avidin (Gallus gallus, UniProt P02701)
# Settings: for A500 Measurement reagent 1: room temperature 5 minutes
# Experimental: HABA (1 mg) and PBS (33 mL) were mixed to obtain a HABA solution. […] In the reagent, the concentration of avidin was 250 μg/mL, and the concentration of HABA was 30 μg/mL.
# A reagent for measuring L-biotin (91.7 μL) was mixed with 0.1 M phosphate buffer (pH 7.5, 18.3 μL) or an L-biotin standard solution (18.3 μL), and the mixture was allowed to stand at room temperature for 5 minutes. Then, the absorbance at 500 nm (A500) of the reaction mixture was measured by spectrophotometer UV-2600 (Shimadzu Corporation). […] As a calibration curve, a straight line by a least squares method was used.
# A sample containing the L-biotin-labeled BSA prepared in the above (3.2.1) was diluted 100-fold with 0.1 M phosphate buffer (pH 7.5). A reagent for measuring L-biotin (91.7 μL) and a sample containing diluted L-biotin-labeled BSA (18.3 μL) or a sample containing an L-biotin-labeled antibody (18.3 μL) were mixed, and the mixture was allowed to stand at room temperature for 5 minutes. Then, A500 of the reaction mixture was measured by UV-2600. The amount (μM) of L-biotin contained in each sample was determined from a calibration curve (regression equation) for the reagent for measuring L-biotin.
# avidin, sequence (P02701 25-152): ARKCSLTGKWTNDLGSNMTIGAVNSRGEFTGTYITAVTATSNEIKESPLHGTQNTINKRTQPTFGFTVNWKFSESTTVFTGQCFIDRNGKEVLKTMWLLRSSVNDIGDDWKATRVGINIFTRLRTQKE
"Biotin concentration (D-biotin in sample, Table 3) [µM]","D-Biotin (from calibration curve, BSA sample value multiplied by 100) [µM]","A500 (sample with Reagent 1 for measuring D-biotin, BSA sample diluted 100-fold)",Compound,A500 Measurement reagent 1 (D-biotin standard solution 25 μM),A500 Measurement reagent 1 (D-biotin standard solution 50 μM)
,,,"O=C(O)CCCC[C@@H]1SC[C@@H]2NC(=O)N[C@@H]21 [D-Biotin, 3aS,4S,6aR-D-biotin]",0.194,0.062
1375.0,1375.0,0.257,D-Bio-BSA: BSA labeled with D-biotin AC5-NHS,,
